Measurements: patent US10500274B2, “Methods for reducing viral load in HIV-1 infected patients” (CytoDyn Inc., priority 2008, dated 2019)
Where “and” joins values, the source holds several entries; their conditions need not be identical. Equal entries are not always repeated. Where two headings read alike, the source gives them in different places.

Key:
R5 HIV-1 = assay: Phase 2 trial of subcutaneous PRO 140: HIV-1 RNA; type: in vivo, human
Protocol: More particularly, dosing comprises 162 mg q1wx3, 324 mg q1wx3, 324 mg q2wx2. Subcutaneous PRO 140 offers a long-acting, self-administered therapy for HIV infection.
(§1) Subjects were followed for a total of 58 days for safety and antiviral effects. Entry criteria included: HIV-1 RNA >5,000 copies/mL, R5 virus, […], no antiretroviral therapy <12 weeks.

[1] = human, in vivo; for Peak serum concentration (average) / mean time to last observation (tlast) / volume of distribution (average): iv
Source text: PK metrics were estimated using non-compartmental methods.

[2] = design: species or system human; settings: in vivo, sc
Source text: as §1

CCR5 lymphocytes = assay: Phase 1a clinical study: coating of CCR5 cells by PRO 140; type: in vivo, human; settings: single IV 2 mg/kg
Protocol: Individuals were treated in sequential, dose-rising cohorts of 5 subjects (4 active and 1 placebo) each and evaluated for up to 120 days post-treatment. […] Safety assessments consisted of monitoring the following: vital signs (blood pressure, pulse, temperature, etc; hematology (hemoglobin, hematocrit, leukocytes, platelets, etc.); serum chemistries (AST/ALT, alkaline phosphatase, BUN, creatinine, etc.); urinalysis (pH, specific gravity, protein, glucose, leukocytes, etc.); and ECGs (12-lead).
Whole blood specimens were combined separately with the indicated phycoerythrin-labeled anti-CCR5 antibodies or with appropriate isotype-control antibodies. Erythocytes were lysed and leukocytes were stabilized using the ImmunoPrep Reagent System (Beckman Coulter), and the cells were analyzed on a TQ Prep™ flow cytometry workstation (Beckman Coulter). Data were expressed as the percent of CCR5 cells relative to all cells gated in the analysis.

[3] = tested on: HIV-1 isolates of study subjects; assay: PhenoSense HIV Entry assay on viruses of Phase 1b subjects; type: cell-based
Protocol: Plasma HIV-1 RNA levels were determined with the Cobas Amplicor HIV-1 Monitor Test (Version 1.5; Roche Diagnostics, Branchburg, N.J.). Samples <400 copies/mL were re-analyzed with the Ultrasensitive Monitor Method. Co-receptor tropism was determined at screening and Days 1, 8, 29 and 59 (Trofile™ assay, Monogram Biosciences, Inc., South San Francisco, Calif.). Viral susceptibility was determined on Days 1 and 59 with the Phenosense™ HIV Entry assay. […] Maximum percent inhibitions were determined from the plateaus of the inhibition curves. The reference virus was HIV-192HT594, a low-passage dual-tropic isolate. GeneSeq™ (Monogram Biosciences) was used to assess HIV-1 subtype and genotypic susceptibility to protease and reverse transcriptase inhibitors.

[4] = Phase 1b clinical study: safety, anti-PRO 140 antibodies, plasma RANTES
Source text: Subjects were ≥18 years of age with plasma HIV-1 RNA ≥5,000 copies/mL, R5-tropic HIV-1 only, CD4^+ cells ≥250/μL with no documented nadir ≤200/μL and no antiretroviral therapy for at least 3 months. Major exclusion criteria included pregnancy, history of AIDS-defining illness, the presence of X4-tropic HIV-1, and acute or symptomatic viral hepatitis within the prior 6 months.
Evaluations of clinical subjects included physical examinations, 12-lead electrocardiograms, vital signs, concomintant medications, and adverse events reporting. Clinical laboratory tests evaluated serum chemistries, hematology and urinalysis.
Samples below the LLOQ were assigned a value of zero. PK metrics were estimated using non-compartmental methods. The area under the serum concentration-time curve from time zero to infinity (AUC) was calculated using the linear trapezoidal rule. The terminal serum half-life was calculated by regression of the terminal portion of the concentration-time curve. […] Sera were tested at a 1:10 dilution initially, and positive samples were serially diluted for titer analysis.
CCR5^+ and CD4^+ lymphocytes were measured by flow cytometry. […] CTC5-PE data were used to determine the absolute number of circulating CCR5^+ lymphocytes pre- and post-treatment. RANTES was measured in platelet-depleted plasma using a validated ELISA.

[5] = tested on: CCR5+ and CD4+ lymphocytes; type: in vivo, human
Protocol: CCR5^+ and CD4^+ lymphocytes were measured by flow cytometry.

B1: PRO 140: humanized IgG4,κ anti-CCR5 mAb, humanized version of the murine mAb PA14 (antibody, chains of the INN, looked up, V domains shown)
VH: EVQLVESGGGLVKPGGSLRLSCAASGYTFSNYWIGWVRQAPGKGLEWIGDIYPGGNYIRNNEKFKDKTTLSADTSKNTAYLQMNSLKTEDTAVYYCGSSFGSNYVFAWFTYWGQGTLVTVSS
VL: DIVMTQSPLSLPVTPGEPASISCRSSQRLLSSYGHTYLHWYLQKPGQSPQLLIYEVSNRFSGVPDRFSGSGSGTDFTLKISRVEAEDVGVYYCSQSTHVPLTFGQGTKVEIK
In the case of B1, the “mean reduction in viral load at day 22” value (R5 HIV-1; SC 162 mg weekly) is reported as 0.75 log 10, the “% subjects with ≥1 log10 drop” value (R5 HIV-1; SC 162 mg, Days 1, 8, 15) is reported as 55% and the “Max viral load reduction (mean)” value (R5 HIV-1; SC 162 mg, Days 1, 8, 15) is reported as 0.99 log10. The “Max viral load reduction: Range” value (R5 HIV-1; SC 162 mg, Days 1, 8, 15) was −0.23 to −1.92 log10, the “Mean duration in days ≥1 log10 drop” value (R5 HIV-1; SC 162 mg, Days 1, 8, 15) was 14 days and the “log10 change in HIV-1 RNA: Day 22 Mean” value (R5 HIV-1; SC 162 mg, Days 1, 8, 15) was −0.75 log10. For the same molecule, the “log10 change in HIV-1 RNA: Day 22 Median” value (R5 HIV-1; SC 162 mg, Days 1, 8, 15) was −0.77; p = 0.0072 log10, the “maximum log10 change in HIV-1 RNA: Mean” value (R5 HIV-1; SC 162 mg, Days 1, 8, 15) was −0.99 log10 and the “maximum log10 change in HIV-1 RNA: Median” value (R5 HIV-1; SC 162 mg, Days 1, 8, 15) was −1.06; p = 0.0093 log10. The “mean reduction in viral load at day 22” value (R5 HIV-1; SC 324 mg bi-weekly) was 1.20 log 10, the “mean reduction in viral load at day 22” value (R5 HIV-1; SC 324 mg weekly) was 1.51 log 10 and the “% subjects with ≥1 log10 drop” value (R5 HIV-1; SC 324 mg, Days 1, 8, 15) was 73%. The “Max viral load reduction (mean)” value (R5 HIV-1; SC 324 mg, Days 1, 8, 15) was 1.65 log10, the “Max viral load reduction: Range” value (R5 HIV-1; SC 324 mg, Days 1, 8, 15) was −0.76 to −2.50 log10 and the “Mean duration in days ≥1 log10 drop” value (R5 HIV-1; SC 324 mg, Days 1, 8, 15) was 20 days. The “log10 change in HIV-1 RNA: Day 22 Mean” value (R5 HIV-1; SC 324 mg, Days 1, 8, 15) was −1.51 log10, the “log10 change in HIV-1 RNA: Day 22 Median” value (R5 HIV-1; SC 324 mg, Days 1, 8, 15) was −1.50; p < 0.0001 log10 and the “maximum log10 change in HIV-1 RNA: Mean” value (R5 HIV-1; SC 324 mg, Days 1, 8, 15) was −1.65 log10. The “maximum log10 change in HIV-1 RNA: Median” value (R5 HIV-1; SC 324 mg, Days 1, 8, 15) was −1.74; p < 0.0001 log10, the “% subjects with ≥1 log10 drop” value (R5 HIV-1; SC 324 mg, Days 1, 15) was 67% and the “Max viral load reduction (mean)” value (R5 HIV-1; SC 324 mg, Days 1, 15) was 1.37 log10. The “Max viral load reduction: Range” value (R5 HIV-1; SC 324 mg, Days 1, 15) was −0.35 to −3.53 log10, the “Mean duration in days ≥1 log10 drop” value (R5 HIV-1; SC 324 mg, Days 1, 15) was 18 days and the “log10 change in HIV-1 RNA: Day 22 Mean” value (R5 HIV-1; SC 324 mg, Days 1, 15) was −1.20 log10. The “log10 change in HIV-1 RNA: Day 22 Median” value (R5 HIV-1; SC 324 mg, Days 1, 15) was −1.03; p < 0.0001 log10, the “maximum log10 change in HIV-1 RNA: Mean” value (R5 HIV-1; SC 324 mg, Days 1, 15) was −1.37 log10 and the “maximum log10 change in HIV-1 RNA: Median” value (R5 HIV-1; SC 324 mg, Days 1, 15) was −1.16; p = 0.0001 log10. For the same molecule, the “continuation of suppression following the last dose” value (R5 HIV-1; SC 324 mg, days 1, 8 and 15) was 7 days, the “time of peak concentrations post-infusion” value [1] was 30 to 60 min and the “Peak serum concentration (average)” value ([1]; 0.5 mg/kg) was 13 µg/mL. For the same molecule, the “mean time to last observation (tlast)” value ([1]; 0.5 mg/kg) was 6.1 days, the “volume of distribution (average)” value ([1]; 0.5 mg/kg) was 8.4 L and the “Peak serum concentration (average)” value ([1]; 2 mg/kg) was 61 µg/mL. The “mean time to last observation (tlast)” value ([1]; 2 mg/kg) was 18.2 days, the “volume of distribution (average)” value ([1]; 2 mg/kg) was 13.8 L and the “Peak serum concentration (average)” value ([1]; 5 mg/kg) was 173 µg/mL. The “mean time to last observation (tlast)” value ([1]; 5 mg/kg) was 18.9 days, the “volume of distribution (average)” value ([1]; 5 mg/kg) was 7.1 L and the administration site reactions [2] was “mild in intensity and resolved within one to two days”. For the same molecule, the “drug-related serious adverse events” value [2] was “no drug-related serious adverse events”, the tolerability [2] was “generally well tolerated compared to placebo” and the “coating of CCR5 lymphocytes (in words)” value (CCR5 lymphocytes) was “effectively coats CCR5 lymphocytes without cellular depletion for two weeks”. The “change in viral susceptibility, baseline to day 59 (in words)” value ([3]; IC50 or Fold Change) was “No change from baseline to day 59”, the “Mean Maximum Percent Inhibition (MPI)” value ([3]; baseline) was 99% and 98.9±1.5% and the “variation of baseline rIC50 values across the 39 subjects” value ([3]; baseline) was 6.2 fold. The “Mean rIC50 (IC50 test isolate / IC50 reference virus)” value ([3]; baseline, viruses of PRO 140-treated subjects) was 2.0 (range: 0.83-5.1), the “Mean Maximum Percent Inhibition (MPI)” value ([3]; post-treatment (end of study)) was 99% and 99.0±1.0% and the “serious adverse events / dose-limiting toxicity” value ([4]; human, in vivo) was “No drug-related serious adverse events or dose-limiting toxicity was reported”. For the same molecule, the “effect on QTc intervals / electrocardiogram” value ([4]; single IV 0.5, 2 and 5 mg/kg) was “no clinically relevant drug-related effect on QTc intervals”, the “duration of maximal masking or coating of CCR5” value ([5]; 0.5 mg/kg) was 1 week and the “average increase in CD4+ lymphocytes” value ([5]; 5 mg/kg, Day 8) was 129 cells/mm^3. The “mean change in CD4+ cells over baseline” value ([5]; 5 mg/kg, Day 8) was “+129 cells/μL”, the “mean change in CD4+ cells over baseline” value ([5]; 5 mg/kg, Day 15) was “+96 cells/μL” and the “mean change in CD4+ cells over baseline” value ([5]; 5 mg/kg, Day 22) was “+83 cells/μL”. The “mean change in CD4+ cells over baseline” value ([5]; 5 mg/kg, Days 29 and 59) was “< +10 cells/μL”, the “change in CD4+ cells (in words)” value ([5]; 0.5 and 2 mg/kg groups) was “No significant change” and the “duration of maximal (high-level) coating of CCR5” value ([5]; 2 and 5 mg/kg (higher dose levels)) was 2 weeks. The “duration of significant (p<0.05) coating of CCR5+ lymphocytes” value ([5]; all PRO 140 treatment groups) was 2-4 weeks and the “depletion of CCR5+ cells” value ([5]; human, in vivo) was “no depletion of CCR5^+ cells”.
